Test results published in patent EP4803537A1 (PHRONTLINE BIOPHARMA (SUZHOU) CO., LTD, dated 2026).

Legend:
[1] = molecular target: T1, Recombinant human EGFR protein (ACRO Biosystems, EGR-H5222) (human, UniProt P00533 25-645); test: ELISA, EGFR coated on the plate
T1 construct: Bought protein

[2] = molecular target: T2, recombinant human FcγRI protein (ACRO Biosystems, Cat. FCA-H52H1) (human, UniProt P12314 16-288, limits assumed); test: BLI (Octet Red 96), FcγRI on HIS1K sensors
T2 construct: Captured on anti-His (HIS1K) biosensors, so it carries a His tag; also called FcγRI receptor
T2 sequence (P12314 16-288 limits assumed): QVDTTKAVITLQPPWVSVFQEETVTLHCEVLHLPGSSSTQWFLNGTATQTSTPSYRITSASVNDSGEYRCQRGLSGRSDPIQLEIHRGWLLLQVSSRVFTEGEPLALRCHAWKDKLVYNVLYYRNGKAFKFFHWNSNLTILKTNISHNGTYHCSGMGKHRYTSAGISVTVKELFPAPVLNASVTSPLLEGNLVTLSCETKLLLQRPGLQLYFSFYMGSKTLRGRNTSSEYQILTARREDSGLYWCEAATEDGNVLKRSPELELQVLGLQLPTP

B1: Fab-Fc/Fab-Fc bispecific antibody (zalutumumab Fab x pertuzumab Fab), KIH combination (K0/H0) (bispecific antibody, human IgG1, kappa)
heavy 1: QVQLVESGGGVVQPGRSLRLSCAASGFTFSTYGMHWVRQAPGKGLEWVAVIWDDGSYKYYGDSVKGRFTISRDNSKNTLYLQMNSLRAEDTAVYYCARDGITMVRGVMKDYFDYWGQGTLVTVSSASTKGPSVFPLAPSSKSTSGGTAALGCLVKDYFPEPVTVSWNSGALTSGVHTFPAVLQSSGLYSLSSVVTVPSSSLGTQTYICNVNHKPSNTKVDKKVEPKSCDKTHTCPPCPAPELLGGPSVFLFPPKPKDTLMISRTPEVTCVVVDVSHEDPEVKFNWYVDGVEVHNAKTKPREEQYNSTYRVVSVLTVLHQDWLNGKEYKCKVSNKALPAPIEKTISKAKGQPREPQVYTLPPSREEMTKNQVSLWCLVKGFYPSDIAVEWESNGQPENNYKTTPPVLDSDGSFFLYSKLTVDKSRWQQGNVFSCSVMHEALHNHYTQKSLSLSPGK
light 1: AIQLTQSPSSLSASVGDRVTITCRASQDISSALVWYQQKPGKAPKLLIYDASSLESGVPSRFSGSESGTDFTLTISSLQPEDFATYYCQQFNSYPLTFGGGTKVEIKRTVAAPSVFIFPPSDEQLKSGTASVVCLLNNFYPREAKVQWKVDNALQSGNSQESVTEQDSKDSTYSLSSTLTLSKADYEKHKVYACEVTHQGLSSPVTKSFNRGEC
heavy 2: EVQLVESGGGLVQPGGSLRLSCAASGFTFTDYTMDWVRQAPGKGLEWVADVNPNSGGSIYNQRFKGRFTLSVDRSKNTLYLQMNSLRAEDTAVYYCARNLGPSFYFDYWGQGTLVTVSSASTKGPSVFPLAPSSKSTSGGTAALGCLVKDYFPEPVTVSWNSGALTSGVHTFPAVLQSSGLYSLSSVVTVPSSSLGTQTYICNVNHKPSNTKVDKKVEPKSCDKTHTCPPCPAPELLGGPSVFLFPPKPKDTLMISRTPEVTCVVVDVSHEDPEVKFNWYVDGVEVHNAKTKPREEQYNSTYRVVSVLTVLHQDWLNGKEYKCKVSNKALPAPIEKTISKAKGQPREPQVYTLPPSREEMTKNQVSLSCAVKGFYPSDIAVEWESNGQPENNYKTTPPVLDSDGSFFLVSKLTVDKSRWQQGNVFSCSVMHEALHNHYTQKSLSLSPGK
light 2: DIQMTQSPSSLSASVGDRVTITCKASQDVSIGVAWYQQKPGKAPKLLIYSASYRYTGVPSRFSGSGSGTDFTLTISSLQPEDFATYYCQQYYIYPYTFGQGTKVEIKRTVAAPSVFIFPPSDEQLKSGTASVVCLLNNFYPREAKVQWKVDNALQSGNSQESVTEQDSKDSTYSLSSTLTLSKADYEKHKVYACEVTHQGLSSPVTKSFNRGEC
notes: Human IgG1 Fc (hinge, CH2, CH3); the exact junction between VH-CH1 and Fc (EU 221-447) is not spelled out; also called KIH control
- binding result [1]: binds
- binding result [2]: binds

B2: Fab-Fc/Fab-Fc bispecific antibody (zalutumumab Fab x pertuzumab Fab), M3 mutant combination (K2/H7) (bispecific antibody, human IgG1, kappa)
heavy 1: not shown
light 1: not shown
heavy 2: EVQLVESGGGLVQPGGSLRLSCAASGFTFTDYTMDWVRQAPGKGLEWVADVNPNSGGSIYNQRFKGRFTLSVDRSKNTLYLQMNSLRAEDTAVYYCARNLGPSFYFDYWGQGTLVTVSSASTKGPSVFPLAPSSKSTSGGTAALGCLVKDYFPEPVTVSWNSGALTSGVHTFPAVLQSSGLYSLSSVVTVPSSSLGTQTYICNVNHKPSNTKVDKKVEPKSCDKTHTCPPCPAPELLGGPSVFLFPPKPKDTLMISRTPEVTCVVVDVSHEDPEVKFNWYVDGVEVHNAKTKPREEQYNSTYRVVSVLTVLHQDWLNGKEYKCKVSNKALPAPIEKTISKAKGQPREPQVYTYPPSREEMTKNQVSLSCAVKGFYPSDIAVEWESNGQPENNYKTTPPVLRSDGSFFLVSKLTVDKSRWQQGNVFSCSVMHEALHNHYTQKSLSLSPGK
light 2: not shown
notes: Human IgG1 Fc; Junction between VH-CH1 and Fc not spelled out; no linker named for this format
- binding result [1]: binds
- binding result [2]: binds

B3: Fab-Fc/Fab-Fc bispecific antibody (zalutumumab Fab x pertuzumab Fab), M1 mutant combination (K2/H2) (bispecific antibody, human IgG1, kappa)
heavy 1: not shown
light 1: not shown
heavy 2: EVQLVESGGGLVQPGGSLRLSCAASGFTFTDYTMDWVRQAPGKGLEWVADVNPNSGGSIYNQRFKGRFTLSVDRSKNTLYLQMNSLRAEDTAVYYCARNLGPSFYFDYWGQGTLVTVSSASTKGPSVFPLAPSSKSTSGGTAALGCLVKDYFPEPVTVSWNSGALTSGVHTFPAVLQSSGLYSLSSVVTVPSSSLGTQTYICNVNHKPSNTKVDKKVEPKSCDKTHTCPPCPAPELLGGPSVFLFPPKPKDTLMISRTPEVTCVVVDVSHEDPEVKFNWYVDGVEVHNAKTKPREEQYNSTYRVVSVLTVLHQDWLNGKEYKCKVSNKALPAPIEKTISKAKGQPREPQVYTLPPSREEMTKNQVSLSCAVKGFYPSDIAVEWESNGQPENNYKTTPPVLRSDGSFFLVSKLTVDKSRWQQGNVFSCSVMHEALHNHYTQKSLSLSPGK
light 2: not shown
notes: as for B2
- binding result [1]: binds
- binding result [2]: binds

B4: Fab-Fc/Fab-Fc bispecific antibody (zalutumumab Fab x pertuzumab Fab), M2 mutant combination (K0/H8) (bispecific antibody, human IgG1, kappa)
heavy 1: not shown
light 1: not shown
heavy 2: EVQLVESGGGLVQPGGSLRLSCAASGFTFTDYTMDWVRQAPGKGLEWVADVNPNSGGSIYNQRFKGRFTLSVDRSKNTLYLQMNSLRAEDTAVYYCARNLGPSFYFDYWGQGTLVTVSSASTKGPSVFPLAPSSKSTSGGTAALGCLVKDYFPEPVTVSWNSGALTSGVHTFPAVLQSSGLYSLSSVVTVPSSSLGTQTYICNVNHKPSNTKVDKKVEPKSCDKTHTCPPCPAPELLGGPSVFLFPPKPKDTLMISRTPEVTCVVVDVSHEDPEVKFNWYVDGVEVHNAKTKPREEQYNSTYRVVSVLTVLHQDWLNGKEYKCKVSNKALPAPIEKTISKAKGQPREPQVYTYPPSREEMTKNQVSLSCAVKGFYPSDIAVEWESNGQPENNYKTTPPVLDSDGSFFLVSKLTVDKSRWQQGNVFSCSVMHEALHNHYTQKSLSLSPGK
light 2: not shown
notes: as for B2
- binding result [1]: binds
- binding result [2]: binds
